Source: the DeepSol protein solubility set

assay: soluble on expression in E. coli; label from the status in PepcDB or PDB records

Row | Sequence | soluble on expression in E. coli
1 | MGSDKIHHHHHHMSLNLRDLEYFYQLSKLRSFTNVAKHFRVSQPTISYAIKRLETYYDCDLFYKDSSHQVVDLTPEGELLAMRTNEILSELNHTKKAIHRSSMKDFKVGFPPIISSYLLSKQDNLNFFNALHMIYGGSNELLSLLLNEEIDSSLLGSLEKIKHPQLEIEELFQKEFFIIMSDSHPLANEKELGFKDLLNEDFILLGEHNIHFNAFNRLNEKYNQSANVVLKLDDAHTIKELVRKNLGISLMADIRLSEDFKNLVKVPFIEEDKQFFHINYAYQKNSILSESEKNFLEILKTLK | not soluble
2 | MGSDKIHHHHHHMETLLKISGVDKSFPGVKALNNACLSVYAGRVMALMGENGAGKSTLMKVLTGIYSKDAGTIEYLNRSVNFNGPKASQEAGISIIHQELNLVGNLTIAENIFLGREFKTSWGAINWQKMHQEADKLLARLGVTHSSKQLCAELSIGEQQMVEIAKALSFESKVIIMDEPTDALTDTETEALFNVIRELKAENRGIVYISHRLKEIFQICDDVTVLRDGQFIGERVMAEITEDDLIEMMVGRRLDEQYPHLSQEKGECVLDVKHVSGSGIDDVSFKLHAGEIVGVSGLMGAGRTELGKLLYGALPKTAGKVRLKNQEIENRSPQDGLDNGIVYISEDRKGDGLVLGMSVKENMSLTSLDHFSQKGGIRHQAEKMAVDDFILMFNIKTPNRDQQVGLLSGGNQQKVAIARGLMTRPNVLILDEPTRGVDVGAKKEIYQLINEFKKEGLSILMISSDMPEVLGMSDRVLVMREGKISAEFSREEATQEKLLAAAIGK | not soluble
3 | MEWKPNRADKTPVYKQIADYIERGISSGEFPSDSKLPSERMLAKELQVNRSTIVAAYEELKSLGVVERQKGSGTRVNTDIWGVSHKRIPNWGRYVEDGSFLPNVPLVQQIRTETQKDDLINLASGELSPELIPSDRFRTILSEKTFMENLGYDHPLGNEMLRKTIAAHVQQYKQIEADSSSILITSGAQQALNLIVQCLLKPGDAIAIEDPSYCFSLPMFKSAGLNIFHLPVDEHGMNPDDLIDLHKKHRIRMVFLNPDYQNPTGTVLSLARRKKILELSSEFGIPIVEDDPYSLISFNGEVNPTLKSMDQNGNVLYISSLSKIVASGLRIGWIIGPTRVIERLADAKQQVDFGHSVFTQWVANQFLESKDFHKHITILRGQLKQRRDVLIAELEGTLGDRVECFVPEGGIHVWCKVKGKFDEYHLLGESIQNGVAFVPGSVLGSKNEYIRFTFGRANIEQIQLGIKRFADTLNEIS | not soluble
4 | VRQRTIVCPLIQNDGAYLLCKMADDRGVFPGQWAISGGGVEPGERIEEALRREIREELGEQLLLTEITPWTFSDDIRTKTYADGRKEEIYMIYLIFDCVSANREVKINEEFQDYAWVKPEDLVHYDLNVATRKTLRLKGLL | soluble
5 | GVSFFLVKEKMKGKNKLVPRLLGITKECVMRVDEKTKEVIQEWSLTNIKRWAASPKSFTLDFGDYQDGYYSVQTTEGEQIAQLIAGYIDIIL | soluble
6 | QTVLKPKVYVRARPKDMNGQGALLSGSVVDIGSGAIENRGGLIAGREALILNAQNIKNLQGDLQGKNIFAAAGSDITNTGSIGAEN | not soluble
7 | MSNNNTSIHDFDFSFICNYFKLLKRQGPGSPEATRKAVSFINELTDDAKIADIGCGTGGQTLFLADYVKGQITGIDLFPDFIEIFNENAVKANCADRVKGITGSMDNLPFQNEELDLIWSEGAIYNIGFERGMNEWSKYLKKGGFIAVSEASWFTSERPAEIEDFWMDAYPEISVIPTCIDKMERAGYTPTAHFILPENCWTEHYFAPQDEVRETFMKEHAGNKTAMDFMKGQQYERSLYSKYKDYYGYVFYIGQKRLEHHHHHH | soluble
8 | MELLVKMGWDDWFAAHAGASSDAGRPGRVVAEQRGEYRVRTADGEVAAILTGRAMRETAGDRLERPVVGDWVIVEPVAGDSTVLVRAVLPRRTILARRESGRGAEVQPVAANVDIVFIVAGLDGALNLRRLERFLAAARESGAEPVVLLTKSDLAGDPAAPAEEAATVAPGIRVMTVSSLDGAGVDEVGALLAPGVTACFIGPSGVGKSSLVNLLAGDPVMAIGAVRERDAKGRHTTTHRQLILLPGGGIVIDTPGMREFGLWQVDEGIDAAFPEIAELAAGCRFHDCSHRHEPGCAVRTALAEGGLDPGRYGSYLKLRLEEETMATLADAEGRRERKKGERRMAKGLRAVLRKKGKK | not soluble
9 | MTDWLYRYPKLYPGFLLKRYKRFFADVQLTSGEVVTAHCPNTGPMTGVSKIGSPVQLSQSDNPNRKLAYTLELIQVQEQEPTWVGVNTALPNRVIKLALEKFLFPELRDYTQVKGEVIYGKDKKSRVDFYLTGSEKQSPIYLEVKNTTWTQGNLALFPDTETTRGQKHLRELMEVLPHSRAVMLYFINRGDCPEFAPGDSTDPVYGKLLRQAITVGLEVLPCRFDVSPEGIRYLGLAKLKT | not soluble
10 | MNLCRECYGIIGEGVVAEKCEACCNAFDRVEEFAEEIVKKMSEYEFETFNVGSRVWGSLKALQEYLSLKGIEYEIKQRFNTKLARAIEEKTGSKRTLNPDITVLFDLETFTFELQIRPVFIYGRYLKRVRNISQTRWLCGYCNGEGCEVCNFTGKKYVSSVEELIAMPAVRLFKARDAKLHGAGREDVDARMLGTGRPFVLEVIEPRKRFVDLKELEEAINSQKWVAVRDLEYTDAEKVREVKTERHRKTYRAKVVFEEKVERERLIEALESLKGEIRQRTPMRVSHRRADRVRVRRLYDARLIHHTGRVAVVEFEAEAGLYIKELVSGDNGRTRPSLAEKVGVNARVDRLDVIAVSLEHHHHHH | soluble
11 | MKKCNIMIVGVGGQGTLLASRIIGNVALKQNYDVKVSEVHGMSQRGGSVVTYVKIGDKVYSPIIEKGEADIIMAFEMLEALRWAEYLKEDGKLLVNEQKINPMPVIIGKEKYPENIMQMLKENYKNVISLDALKIARECKNIKAVNTVLIGLLAKVLEIDKEVWIESIKEVVPSKAVDVNLKAFEEGYSRG | soluble
12 | MSHVTAAPNVLAASAGELAAIGSTMRAANAAAAAPTAGVLAAGGDDVSAGIAALFGARAQAYQAISAQAALFHDRFVQILQEGAAAYAMAEAANALPLQKAQGVVSELAQDRTGGTGTGQSRGAGGFGGVGQAGGKGWDGGPIGNGQVGEQHGAGQLGSTDGNPGVAGAAHGSGVSASHGSGATGAAGVADPGGSGAGVGSAAGNGTGAGSADAVGGAGTGRDIVGSVRGDGGVGMASGDGGLSTGAAGASAEGGLMPGFGGAPWVGGHWGLGGEGHSGAIGGVGEQVAPAVATAPAVSPATTSAVAAESGSTPATKAQAMHATTNPGNAAHQGNPADPGNSARRADGGRDEQLLLLPLTSLRGLRHTLKKLSGLRARNGLLTASGDNASGSGRPWDRDQLLRALGLRPPGHE | not soluble
13 | MNRHLIHRRDILDTLVADLQAQQPDHIAVTGDLVNIALVNEFAPARQWLESVGPADRVSLVPGNHDAYVRSTAHRFAETFPDYISGDDATPGFPYLRRREAIAIIGVSSAVPTAPLRATGWLGAPQRAALEALLQSLAGERVFKVLLIHHPLQSRSRHKRLTDAADLIALLQRHPVDLVLHGHDHVHATVRIDTPFGAIPVVGVPSASAMNDRHRPSAAYNLFKISEGNLEHHHHHH | soluble
14 | AHHHHHHGSIIIMDNGGQYVHRIWRTLRYLGVEAKIIPNTTPLDEIKAMKPKGIIFSGGPSLENTGNCEKILEHYEEFNVPILGICLGHQLIAKFFGGEVGRGEKAEYSLVEIEIIDENDIFKGLPRKVRVWESHMDEVKKLPPKFKLLARSDTCPVEAMKHEELPIYGVQFHPEVAHTEHGADILRNFAKICGEL | soluble
15 | MGSDKIHHHHHHMNLQGLLLFDIDGVIRDVAASYRRAIQETVHHYSGWRPSVAEIDALKTEGIWNNDWDASLELLRRDQKSRNQALELPSREQLIEVFSRFYFGGDPNGDPSNWQGFIRNEPLLVNHRFFEELSSLGFAWGFVSGAEPPSARFVLEQRLGLKHPTLIAMGEAPDKPDPTGLLQLASQLAGRRLGQGVPTVAYLGDTVADVRTVINARQQQPEQQWMSLAVAPPHLHGIEQQEARNAYEDRLKQAGADHILSCTTDAIETLKNW | not soluble
16 | MSILVYDREHNFKKWYIYWIPKTKMLGVKDDKDVVYEKMCTLQERTDILKVSKSLVEEKWSSLFSESGLHIEEVCEKELVLTFALQRNITLERTELSGRFDECLYLEYLRLKTLTNVSPMKRKRTASTVEHVIRSDDIKPILAPKSDPVKKRTTRMAAKASGPEFDDE | not soluble
17 | HEIPYDNTSLPAVTFMQPSAKKNLLIFGGYDSNLEELILWFSPLRNNGYNLIIFDGPGQGNMLFKKEKSHFIMNFEKPVAAVLDYFSLDRVAALGLSWGGFFVMRAAAFEKRIEKIIALDIFYQGLDALTIAMNPVLAFIFKTLVNFKCKTWIDVLLTHAMTRDLDLNWKIKRGYQLTGTKTPYDLIQNIKKHNMKGLGPLINQEVLLLAGEKDQYVPVKRLGQIKKELSNAAEIKTHLFTQESGGEQHCQAGSNLALLAIKDFLK | not soluble
18 | MGSDKIHHHHHHMTTDGQLAYQQTCDYPIEERQSEQQVIRQYLPLIKRIVSQMRSHCGVMLSLEDMEQIGMMALLESSRRYPGELDNGFISFAGQRIRGAILDELRRQDWRPRPVRQQAHELNDVVRRLSREMGREPSDLEVASALGLSAEDYRERLYSTQAESMKSLDELLLVGEHPVDRGNDVEQLMLKQTLIKVISKLNEREQLILSLYYHHELNLKEIAMALGLTETRICQLHKSAISQLKTILQR | not soluble
19 | MKEEKRSSTGFLVKQRAFLKLYMITMTEQERLYGLKLLEVLRSEFKEIGFKPNHTEVYRSLHELLDDGILKQIKVKKEGAKLQEVVLYQFKDYEAAKLYKKQLKVELDRSKKLIEKALSDNF | soluble
20 | MAQNLPTIALLATGGTIAGSGVDASLGSYKSGELGVKELLKAIPSLNKIARIQGEQVSNIGSQDMNEEIWFKLAQRAQELLDDSRIQGVVITHGTDTLEESAYFLNLVLHSTKPVVLVGAMRNASSLSADGALNLYEAVSVAVNEKSANKGVLVVMDDTIFSVREVVKTHTTHVSTFKALNSGAIGSVYYGKTRYYMQPLRKHTTESEFSLSQLKTPLPKVDIIYTHAGMTPDLFQASLNSHAKGVVIAGVGNGNVSAGFLKAMQEASQMGVVIVRSSRVGSGGVTSGEIDDKAYGFITSDNLNPQKARVLLQLALTKTNDKAKIQEMFEEY | soluble
21 | MGSDKIHHHHHHMRKLGFVLFVLITAVMTAQEEPLVSNIFQDTYILDALADISAQTGIPIIADTTVTGFITMELNEVPLEQALKMILMPGGYVFKKMDGFYLVGSPDPANPAFRYLAVTKTYKLKYITTADAQELLPAVYKSYVKFNEKNNMVTITAPEEIIQEFEEDLKKIDIPIPQVKISVIVTEVSKDYSNELGLNSLDYSFGSGQEFNENWSATLGLVTGIIDVQTDVFGQILAQLKLLEEDQKAKITADPWIIVKSGEKASLFLGERQVVLLQAEGAVSRIESIDVGVSIDIQPRVMDKEELELTLSPKVSHFAGEKLGTFAVKQNELSTTLFLKNGQTVVISGATIEDSAQTSSGVPILNKIPLIRYLFGGTTKKDSQKELYIFIKAEIQGSE | not soluble
